Legend:
[1] = target: Human PD-1 (soluble analyte, Octet RED 96) (human) (UniProt Q15116); test: Octet RED 96
[2] = target: cynomolgus monkey PD-1 (soluble analyte, Octet RED 96) (UniProt B0LAJ3); test: Octet RED 96
[3] = target: human PD1 receptor on Jurkat-PD1-NFAT-Luc2 reporter cells (human) (UniProt Q15116); test: cell-based or functional assay
[4] = target: FcgRIa; test: Octet RED 96
[5] = target: FcRn; test: Octet RED 96
[6] = target: FcgRIIIaV; test: Octet RED 96
[7] = target: FcgRIIaH; test: Octet RED 96
[8] = target: FcgRIIb; test: Octet RED 96

Human PD-1 (soluble analyte, Octet RED 96) (human), sequence (Q15116 25-167): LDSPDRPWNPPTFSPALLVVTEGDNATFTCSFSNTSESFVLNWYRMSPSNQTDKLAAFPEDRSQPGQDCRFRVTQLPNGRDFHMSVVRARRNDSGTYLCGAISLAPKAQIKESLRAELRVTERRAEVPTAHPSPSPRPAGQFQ
human PD1 receptor on Jurkat-PD1-NFAT-Luc2 reporter cells (human), sequence (Q15116 25-288): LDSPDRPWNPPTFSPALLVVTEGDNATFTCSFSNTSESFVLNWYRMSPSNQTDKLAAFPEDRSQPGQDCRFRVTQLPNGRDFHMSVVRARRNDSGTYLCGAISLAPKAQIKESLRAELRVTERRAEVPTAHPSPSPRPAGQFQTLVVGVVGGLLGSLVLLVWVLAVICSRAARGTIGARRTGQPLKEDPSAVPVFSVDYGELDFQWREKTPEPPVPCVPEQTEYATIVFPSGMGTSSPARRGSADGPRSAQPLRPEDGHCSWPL

Kd [1] | Kd [2] | effective dose (ED50), reactivation of NFAT-luciferase luminescence in Jurkat-PD1-NFAT reporter line [3] | Kd [4] | Kd [5] | Kd [6] | Kd [7] | Kd [8] | Substance
0.186 nM | < 0.001 nM | – | – | – | – | – | – | BCD-100
– | – | 115 | – | – | – | – | – | BCD-100 (antibody)
– | – | – | 64 nM | 9.52 nM | 4200 nM | 1600 nM | 280 nM | Nivolumab IgG4
– | – | – | 50 nM | 5.1 nM | 5000 nM | 1300 nM | 2300 nM | Pembrolizumab IgG4

Reference: patent US20190127478A1
